Measurements published in paper doi:10.1101/2022.05.06.490478 (bioRxiv, 2022).

B1: C. elegans TMC-1 with C-terminal 3C site-mVenus-3xFLAG (tmc-1::mVenus knock-in) (natural protein, UniProt D3KZG3 1-1285, looked up)
chain: MQEAARRASLRKEHTPTNEKFGDLSKQDSLGERASSKLTLDDELYDILYAFGETDAFINKGDKQRETDEDGNPLTRQALLERIRQKKEVIGKLRCQAWSMTRKRRTLKLAQKYLEQHESKVSRSHLYMEEMRKRARLMKRSFSNFKTYLIPWESKIKRIESHFGSVVSSYFTFLRWIVFVNIMITLIALVFVVLPETLADSVANEGRFNRTKTRKQIPANERVHADELAVVWHYDGYLRYSPLFYGYYSDDPFLGNKIKYALPLAYFMVTLTIFAYSFFAILRKMAANARMSKLSGSKAEQYIFNWKLFTGWDYTIGNSETASNTVMAVVIKLRESIADIKKDAHGKFRLLQFSLRVFANIIICAMLGFSIYCIIFAVQKSQVQDDGNLFTKNQVPSVVSTITHVFPMIFDLIGKMENYHPRTALRAHLGRVLILYTVNYITLIFALFEKMTALRDRVNSTSTSSSHRTKRQQGGWNPNMQRPPPYASRAEVRQMSDFLAANTRRFQTVSQRTTRSVTTPFTVAPQFGPFNVNNPNAVFHNGTHSTSFESQILGPKALPIFTPPPRKYPGFTPGNVGQQFGGPDFPRNQVYTKSTPLPRVRTKPPWVYTTTHPPLVQNRAMTTTMSKSAKKGNSKNLDDDILLSNETIQMSEAALRRNHDGHNNDICWETIIGQEIVKLVTMDLIFTILSILVIDLFRGLWIKYCSSWWCWDIETTFPEYGEFKVAENVLHIINNQGMIWLGLFFAPLLPAINNIKLIILMYIRGWAVMTCNVPAREIFRASRSSNFYLGILLIWLLLCTLPVGFVIASMSPSRSCGPFARYQHFYTVVTREIEKRVDQTVLSYIRHIASPGVVIPIILFLILIIYFLFSLVRGLREANTDLQAQLVHERTEEKKKIFELAGGKKNKFEKDRDKKRSNDYIPLIEQRRREPWRQYHEMEADHALASDSSEESDINEDEDDERQPLTAYPLRAIETPPETLQVTAFHPSLGSLIENREMEDEESASGDQLPMIHKSVSFQGPSHMQMRQSISTESCSQISRSAIQVATPEEIRALLRPYLEAKYGIPYQHGIKSFPIDVHTPPNNTPSRRSSKYNSFVSLYEHTRDDHKNFVASTIKETDEDPGKSDKKQTSSKDVAPDFMPWPSADEARALREKMKSKTPLMLTKTTVEEKPKGGKSSESEFRPPVPIHRKYNIQTTEEENEEEETDSAPESSKKRFRISVSPTKTIAPASASRAQHKIVSQASSSSSIPHGRQPDPNKKASLVLPPLRAPRVQFDEDDSPRQID
B2: C. elegans TMC-1 (pore-forming subunit of the native TMC-1 complex), after removal of mVenus-3xFLAG by 3C protease (natural protein, UniProt D3KZG3 1-1285, looked up)
chain: B1 chain
modifications: N-linked glycan at N209

Assays:
single molecule pulldown = target: the molecule itself; test: single molecule pulldown
cryo-EM structure = target: the molecule itself; test: cryo-EM structure

Row | Protein | stoichiometry N (single molecule pulldown) | stoichiometry N (cryo-EM structure)
1 | B1 | 2 | 
2 | B2 |  | 2
